One block for each molecule: values may come before it.
Columns and labels:
[1] = target: human PlGF-1 comprising amino acids 1-137 produced in human embryonic kidney cells (human) (UniProt P49763); assay: Format 3 Quantikine ELISA, capture MAb264, detection Pb264; sFlt-1 77 pmol/L (ratio 2.5)
[2] = target: human PlGF-1 comprising amino acids 1-137 produced in human embryonic kidney cells (human) (UniProt P49763); assay: Format 2 …, capture MAb264, detection Pb264; sFlt-1 153 pmol/L (ratio 5)
[3] = target: human PlGF-1 comprising amino acids 1-137 produced in human embryonic kidney cells (human) (UniProt P49763); assay: Format 2 …, capture MAb264, detection Pb264; sFlt-1 77 pmol/L (ratio 2.5)
[4] = target: recombinant human PlGF-1 (comprising amino acids 1-131) expressed in E. coli (R&D Systems) (human) (UniProt P49763); assay: SPR (BIAcore 2000); MAb captured on anti-mouse IgG chip, antigen in solution; 1:1 fit with mass transport
[5] = target: T1, CHO human PlGF-1 fragment (comprising amino acids 17-131; ATCC PTA-8540) (human, UniProt P49763 35-221); assay: as above
T1 sequence: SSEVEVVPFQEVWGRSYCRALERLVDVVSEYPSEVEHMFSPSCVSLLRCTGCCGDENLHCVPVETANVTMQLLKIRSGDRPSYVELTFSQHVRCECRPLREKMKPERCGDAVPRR
Description: (§1) First, a ˜5,500 RU rabbit anti-mouse IgG Capture Biosensor was created by amine-coupling rabbit anti-mouse IgG antibody (BIAcore® International AB, a GE Healthcare company, Uppsala, Sweden) to a CM4 biosensor chip (BIAcore® International AB, a GE Healthcare company, Uppsala, Sweden) via EDC/NHS/Ethanolamine chemistry provided in an Amine Coupling Kit (BIAcore® International AB, a GE Healthcare company, Uppsala, Sweden). Human PlGF-1 monoclonal antibodies and human PlGF-1 antigens were diluted into a running buffer (hereinafter “Running Buffer”) composed of HBS-EP buffer (BIAcore® International AB, a GE Healthcare company, Uppsala, Sweden) spiked with 0.1% BSA and 0.1% CM-Dextran.
(§2) After equilibrating the rabbit anti-mouse IgG Capture Biosensor for 5 minutes at 5 μL/minute with Running Buffer, 5 to 10 μL of human PlGF-1 monoclonal antibody was injected over individual flow cells with one flow cell being left blank as a reference flow cell. The flow cells were washed for 6 minutes at 50 μL/minute with Running Buffer before injecting 150 μL of human PlGF-1 or human PlGF-1 fragment antigen at a […] concentration across the biosensor, which was immediately followed by 15 minutes of Running Buffer. The biosensor was regenerated with one 30 μL injections of 10 mM Glycine pH 1.7 (BIAcore® International AB, a GE Healthcare company, Uppsala, Sweden) at a flow rate of 10 μL/minute.

[6] = target: T2, CHO-sourced human PlGF-1 (comprising amino acids 1-131; ATCC PTA-8537) (human, UniProt P49763 19-221, glycosylated (CHO-expressed)); assay: as above
T2 sequence: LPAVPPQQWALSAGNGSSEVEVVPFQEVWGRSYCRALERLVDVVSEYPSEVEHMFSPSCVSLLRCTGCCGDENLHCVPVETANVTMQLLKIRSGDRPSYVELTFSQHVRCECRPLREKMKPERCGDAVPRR
Description: as §1, §2

[7] = target: T1, CHO human PlGF-1 fragment (comprising …); assay: … sandwich, capture MAb255, detection MAb826; antigen 1500 pg/mL
Outline: (§3)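 In a sandwich immunoassay, human PlGF-1 antigen preparations, including recombinant forms expressed in CHO cells, were tested at 0 to 1500 pg/mL. Magnetic microparticles carried a monoclonal anti-human PlGF-1 capture antibody, attached by passive coating and EDAC cross-linking, and a second monoclonal anti-human PlGF-1 antibody labeled with acridinium ester served for detection. At each antigen level, the chemiluminescent signal was read in relative light units (RLU).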

[8] = target: T3, CHO human PlGF-1 comprising amino acids 1-137 (human PlGF-1-His (1-131), CHO 6305) (human, UniProt P49763 19-221, N-glycans at N21 (completely glycosylated) and N89 (partially glycosylated)); assay: as above
T3 construct: Mature human PlGF-1 with 6xHis tag (137 amino acids); also called CHO (1-137)
T3 sequence: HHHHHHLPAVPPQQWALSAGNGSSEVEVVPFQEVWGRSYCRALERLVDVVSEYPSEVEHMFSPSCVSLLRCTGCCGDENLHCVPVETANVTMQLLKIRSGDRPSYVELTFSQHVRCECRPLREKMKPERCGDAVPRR
Outline: as §3

[9] = target: T4, human PlGF-1 comprising amino acids 1-137 produced in human embryonic kidney cells (human, UniProt P49763 19-221); assay: as above
T4 construct: Mature human PlGF-1 with 6xHis tag; also called HEK (1-137); full length HEK human PlGF-1 (1-137)
T4 sequence: T3 sequence
Outline: as §3

[10] = target: T5, human PlGF-1 fragment (comprising amino acids 17-131) produced in human embryonic kidney cells (human, UniProt P49763 35-221); assay: as above
T5 sequence: T1 sequence
Outline: as §3

[11] = target: recombinant human PlGF-1 (comprising amino acids 1-131) expressed in E. coli (R&D Systems) (human) (UniProt P49763); assay: … sandwich, capture MAb255, detection pAb264; antigen 750 pg/mL
[12] = target: T3, CHO human PlGF-1 comprising amino acids …; assay: … sandwich, capture MAb826, detection pAb264; antigen 1500 pg/mL
[13] = target: recombinant human PlGF-1 (comprising amino acids 1-131) expressed in E. coli (R&D Systems) (human) (UniProt P49763); assay: … sandwich, capture MAb826, detection pAb264; antigen 750 pg/mL

- % Inhibition [1]: 18.3%
- PlGF-1 Measured [1]: 707 pg/mL
- % Inhibition [2]: 64.9%
- PlGF-1 Measured [2]: 276 pg/mL
- % Inhibition [3]: 37.2%
- PlGF-1 Measured [3]: 494 pg/mL
Molecule: native sFlt-1, isolated from human placental tissue (from UniProt P17948 27-687) (receptor)

- Kd [4]: 0.368 nM
- koff [4]: 0.000121 s⁻¹
- kon [4]: 329000 M⁻¹ s⁻¹
- Kd [5]: 0.71 nM
- koff [5]: 0.000129 s⁻¹
- kon [5]: 182000 M⁻¹ s⁻¹
- Kd [6]: 1.7 nM
- koff [6]: 0.000123 s⁻¹
- kon [6]: 73000 M⁻¹ s⁻¹
- RLU [7]: 750000 RLU
- RLU [8]: 734000 RLU
- RLU [9]: 1.52e+06 RLU
- RLU [10]: 1.04e+06 RLU
- RLU [11]: 1.32e+06 RLU
B1: monoclonal antibody 1-255-713 (produced by murine hybridoma cell line 1-255-713, ATCC PTA-8536) (antibody, mouse IgG2a, V domains shown)
VH: QVHLQQSGAELMKPGASVKISCKATGYTFSSYWIEWVKQRPGHGLEWIGEILPGSVSNNFNEKFKDKATLTADPSSNTAYIQVSSLTSEDSAVYYCARSTGFYYGGNYFDHWGQGTTLAVSS
VL: DVVMTQTPLSLPVSPGDQASISCRSSQSLVHSNGHTYLHWYLQKPGQSPKLLIYKVSNRFSGVPDRVSGSGSGTDFTLKISRVEAEDLGVYFCSQSTHVPPTFGGGTKLEIKR
notes: also called MAb255

- Kd [4]: 0.092 nM
- koff [4]: 0.000214 s⁻¹
- kon [4]: 2.34e+06 M⁻¹ s⁻¹
- Kd [5]: 0.219 nM
- koff [5]: 0.000291 s⁻¹
- kon [5]: 1.33e+06 M⁻¹ s⁻¹
- Kd [6]: 0.498 nM
- koff [6]: 0.000325 s⁻¹
- kon [6]: 652000 M⁻¹ s⁻¹
- RLU [12]: 329000 RLU
- RLU [13]: 606000 RLU
B2: monoclonal antibody 2-826-335 (produced by murine hybridoma cell line 2-826-335, ATCC PTA-8539) (antibody, mouse IgG1, V domains shown)
VH: QVQLKQSGPGLVQPSQSLSITCTVSGFSLTTYGIHWVRQSPGKGLEWLGVMWSGGDTDYDAAFISRLSISKDNSKSQVFFKMNSLQANDTGIYYCARYRFYGMDYWGQGTSVTVSS
VL: AIQMTQSSSSFSVSLGDRVTITCKASEDIYNRFAWYQQKPGNAPRLLISGAASLEAGVPSRFSGSGSGQDYTLSITSLQTEDVATYYCQQYWSTPWTFGGGTKLEIKR
notes: also called MAb826
